Experimental data as given in patent US20030039658.

Tests used:
[1] = biological target: rGST-CTD, recombinant glutathione-S-transferase fusion protein containing a portion of the CTD of RPB1 of Pol II (UniProt P24928)
[2] = biological target: FLAG-tagged DSIF p160 (FT-DSIFp160) (UniProt O00267)
[3] = biological target: RPB1, the largest (220 kDa) subunit of Pol II, within purified Pol II (UniProt P24928)

## FLAG-tagged CDK9 (FT-CDK9)
[1]
  in vitro kinase assay (phosphorylation of the substrate): The f:CDK9 immunopurified preparation was able to phosphorylate both rGST-CTD and RPB1 within Pol II
Cyclin T1
Cyclin T1, sequence (chain, as listed by the source): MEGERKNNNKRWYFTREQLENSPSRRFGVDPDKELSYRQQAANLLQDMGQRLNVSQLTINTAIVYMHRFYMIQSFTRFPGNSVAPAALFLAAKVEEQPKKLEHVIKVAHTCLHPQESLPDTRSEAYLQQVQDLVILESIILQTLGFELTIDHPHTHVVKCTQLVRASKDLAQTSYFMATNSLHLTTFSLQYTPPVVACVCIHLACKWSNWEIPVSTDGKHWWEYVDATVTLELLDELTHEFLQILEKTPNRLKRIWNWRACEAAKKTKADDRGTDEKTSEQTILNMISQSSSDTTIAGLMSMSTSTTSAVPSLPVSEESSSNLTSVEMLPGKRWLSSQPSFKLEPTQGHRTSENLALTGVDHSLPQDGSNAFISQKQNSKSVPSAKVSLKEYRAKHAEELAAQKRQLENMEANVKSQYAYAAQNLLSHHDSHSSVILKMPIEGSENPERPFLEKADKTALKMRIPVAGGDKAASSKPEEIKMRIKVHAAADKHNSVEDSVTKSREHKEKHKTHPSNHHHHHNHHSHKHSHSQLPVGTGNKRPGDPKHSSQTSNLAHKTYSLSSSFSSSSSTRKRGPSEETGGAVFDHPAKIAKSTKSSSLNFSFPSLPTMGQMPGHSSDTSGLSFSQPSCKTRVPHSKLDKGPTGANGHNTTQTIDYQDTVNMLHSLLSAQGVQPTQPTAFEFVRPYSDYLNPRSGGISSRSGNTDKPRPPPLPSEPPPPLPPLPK
  in vitro kinase assay (autophosphorylation of the preparation): The FT-CDK9 immunopurification autophosphorylates specific components circa 45 kD and 87 kD, consistent with the molecular weights expected for Cyclin T1 and a FT-CDK9
[2]
  in vitro kinase assay (phosphorylation of the substrate): the immunopurified f:CDK9 actively phosphorylated a circa 160 kDa polypeptide, most likely f:DSIF p160, within an immunopurified f:DSIF p160 preparation
[3]
  in vitro kinase assay (phosphorylation of the substrate): The f:CDK9 immunopurified preparation was able to phosphorylate both rGST-CTD and RPB1 within Pol II

## FLAG-tagged CDK9M (FT-CDK9M), CDK9 with the D167N mutation
[1]
  in vitro kinase assay (phosphorylation of the substrate): significantly impaired in its ability to phosphorylate either rGST-CTD or RPB1 within Pol II
Cyclin T1
  in vitro kinase assay (autophosphorylation of the preparation): The FT-CDK9M immunopurification was significantly weaker in its ability to autophosphorylate the 87 kD band
[3]
  in vitro kinase assay (phosphorylation of the substrate): significantly impaired in its ability to phosphorylate either rGST-CTD or RPB1 within Pol II
